Assay results taken from patent publication US20200010523A1 (INSTITUTE FOR CANCER RESEARCH, published 2020).

Target: T1, human Müllerian-inhibiting substance type II receptor (MISIIR) (human, UniProt Q16671 18-573)
T1 sequence (looked up): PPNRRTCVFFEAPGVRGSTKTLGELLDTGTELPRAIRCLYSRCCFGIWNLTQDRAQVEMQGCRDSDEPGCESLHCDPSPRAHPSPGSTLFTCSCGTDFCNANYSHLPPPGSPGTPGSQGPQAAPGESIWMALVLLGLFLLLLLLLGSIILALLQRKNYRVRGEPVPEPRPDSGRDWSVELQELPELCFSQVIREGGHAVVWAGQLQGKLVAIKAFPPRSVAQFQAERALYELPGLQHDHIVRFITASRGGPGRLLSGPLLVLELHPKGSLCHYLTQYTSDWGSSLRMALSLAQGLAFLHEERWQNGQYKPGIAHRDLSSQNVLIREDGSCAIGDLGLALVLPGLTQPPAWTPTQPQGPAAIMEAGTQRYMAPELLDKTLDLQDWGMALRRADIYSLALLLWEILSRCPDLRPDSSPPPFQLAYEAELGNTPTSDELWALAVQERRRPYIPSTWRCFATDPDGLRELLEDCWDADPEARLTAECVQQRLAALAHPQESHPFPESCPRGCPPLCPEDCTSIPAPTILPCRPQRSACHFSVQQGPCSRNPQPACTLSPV
Experiment: cell-based or functional assay

B1: Müllerian-inhibiting substance (MIS) (ligand)
chain: SAGATAADGPCALRELSVDLRAERSVLIPETYQANNCQGVCGWPQSDRNPRYGNHVVLLLKMQVRGAALARPPCCVPTAYAGKLLISLSEERISAHHVPNMVATECGCR
expression of a luciferase reporter gene over background levels, 10 nM, 3-day assay, P19 reporter cell line: ~10 fold
